Data from the supplement of paper PMC11246515.
± gives the standard deviation of the averaged measurements.

Assay: total protein half-life in vivo (active degradation + dilution); higher = more stable protein
[1] = E. coli NCM3722 delta-clpP delta-lon delta-hslV, growth: N-lim chemostat, doubling time 6 h
[2] = E. coli NCM3722 delta-clpP, growth: N-lim chemostat, doubling time 6 h
[3] = E. coli NCM3722 delta-smpB, growth: N-lim chemostat, doubling time 6 h
[4] = wild type E. coli NCM3722, growth: C-lim chemostat, doubling time 3 h
[5] = wild type E. coli NCM3722, growth: C-lim chemostat, doubling time 6 h
[6] = wild type E. coli NCM3722, growth: C-lim chemostat, doubling time 12 h
[7] = wild type E. coli NCM3722, growth: P-lim chemostat, doubling time 6 h
[8] = wild type E. coli NCM3722, growth: P-lim chemostat, doubling time 12 h
[9] = E. coli NCM3722 delta-hslV, growth: N-lim chemostat, doubling time 6 h
[10] = E. coli NCM3722 delta-lon, growth: N-lim chemostat, doubling time 6 h
[11] = wild type E. coli NCM3722, growth: N-lim chemostat, doubling time 6 h
[12] = wild type E. coli NCM3722, growth: N-lim chemostat, doubling time 12 h

Row | Sequence | total protein half-life in vivo [1] | total protein half-life in vivo [2] | total protein half-life in vivo [3] | total protein half-life in vivo [4] | total protein half-life in vivo [5] | total protein half-life in vivo [6] | total protein half-life in vivo [7] | total protein half-life in vivo [8] | total protein half-life in vivo [9] | total protein half-life in vivo [10] | total protein half-life in vivo [11] | total protein half-life in vivo [12]
1 | MSYPSLFAPLDLGFTTLKNRVLMGSMHTGLEEYPDGAERLAAFYAERARHGVALIVSGGIAPDLTGVGMEGGAMLNDASQIPHHRTITEAVHQEGGKIALQILHTGRYSYQPHLVAPSALQAPINRFVPHELSHEEILQLIDNFARCAQLAREAGYDGVEVMGSEGYLINEFLTLRTNQRSDQWGGDYRNRMRFAVEVVRAVRERVGNDFIIIYRLSMLDLVEDGGTFAETVELAQAIEAAGATIINTGIGWHEARIPTIATPVPRGAFSWVTRKLKGHVSLPLVTTNRINDPQVADDILSRGDADMVSMARPFLADAELLSKAQSGRADEINTCIGCNQACLDQIFVGKVTSCLVNPRACHETKMPILPAVQKKNLAVVGAGPAGLAFAINAAARGHQVTLFDAHSEIGGQFNIAKQIPGKEEFYETLRYYRRMIEVTGVTLKLNHTVTADQLQAFDETILASGIVPRTPPIDGIDHPKVLSYLDVLRDKAPVGNKVAIIGCGGIGFDTAMYLSQPGESTSQNIAGFCNEWGIDSSLQQAGGLSPQGMQIPRSPRQIVMLQRKASKPGQGLGKTTGWIHRTTLLSRGVKMIPGVSYQKIDDDGLHVVINGETQVLAVDNVVICAGQEPNRALAQPLIDSGKTVHLIGGCDVAMELDARRAIAQGTRLALEI | 6.33 ± 2.2 h | 3.52 ± 0.043 h | 2.74 ± 0.96 h | 2.93 ± 0.18 h | 4.94 ± 0.13 h | 9.61 ± 2.1 h | 5.18 ± 0.79 h | 10.6 ± 0.13 h | – | – | – | –
2 | MKKLKLHGFNNLTKSLSFCIYDICYAKTAEERDGYIAYIDELYNANRLTEILSETCSIIGANILNIARQDYEPQGASVTILVSEEPVDPKLIDKTEHPGPLPETVVAHLDKSHICVHTYPESHPEGGLCTFRADIEVSTCGVISPLKALNYLIHQLESDIVTIDYRVRGFTRDINGMKHFIDHEINSIQNFMSDDMKALYDMVDVNVYQENIFHTKMLLKEFDLKHYMFHTKPEDLTDSERQEITAALWKEMREIYYGRNMPAV [P0A7F6] | – | 4.12 ± 0.42 h | 3.3 ± 0.2 h | 2.8 ± 0.15 h | 4.99 h | 9.17 ± 0.37 h | 4.78 ± 0.48 h | 7.61 ± 1.4 h | 3.29 ± 0.22 h | 3.67 ± 0.29 h | 2.928 ± 0.015 h | 4.17 ± 0.036 h
3 | MLINIGRLLMLCVWGFLILNLVHPFPRPLNIFVNVALIFTVLMHGMQLALLKSTLPKDGPQMTTAEKVRIFLFGVFELLAWQKKFKVKK | 6.84 h | – | 6.18 h | 3.25 h | – | – | 6.22 h | 12.6 h | 7.72 h | 6.85 h | 4.21 h | –
4 | MTPILNHYFARINWSGAAAVNIDTLRALHLKHNCTIPFENLDVLLPREIQLDNQSPEEKLVIARRGGYCFEQNGVFERVLRELGFNVRSLLGRVVLSNPPALPPRTHRLLLVELEEEKWIADVGFGGQTLTAPIRLVSDLVQTTPHGEYRLLQEGDDWVLQFNHHQHWQSMYRFDLCEQQQSDYVMGNFWSAHWPQSHFRHHLLMCRHLPDGGKLTLTNFHFTHYENGHAVEQRNLPDVASLYAVMQEQFGLGVDDAKHGFTVDELALVMAAFDTHPEAGK | – | 2.34 ± 0.39 h | 2.15 ± 0.18 h | – | 2.81 h | 4.65 h | – | 3.88 h | 3.1 h | 4.618 ± 0.018 h | 3.11 ± 0.3 h | 5.26 ± 0.66 h
5 | MSLNFLDFEQPIAELEAKIDSLTAVSRQDEKLDINIDEEVHRLREKSVELTRKIFADLGAWQIAQLARHPQRPYTLDYVRLAFDEFDELAGDRAYADDKAIVGGIARLDGRPVMIIGHQKGRETKEKIRRNFGMPAPEGYRKALRLMQMAERFKMPIITFIDTPGAYPGVGAEERGQSEAIARNLREMSRLGVPVVCTVIGEGGSGGALAIGVGDKVNMLQYSTYSVISPEGCASILWKSADKAPLAAEAMGIIAPRLKELKLIDSIIPEPLGGAHRNPEAMAASLKAQLLADLADLDVLSTEDLKNRRYQRLMSYGYA [P0ABD5] | 6.13 ± 0.7 h | – | 5.526 ± 0.043 h | 3.63 ± 0.15 h | 7.76 ± 0.089 h | 12.5 ± 0.96 h | 6.27 ± 0.27 h | 13.9 ± 1.9 h | 6.72 ± 0.71 h | 7.18 ± 0.38 h | 6.34 ± 0.58 h | 11.4 ± 2.5 h
6 | MMYHIPGVLSPQDVARFREQLEQAEWVDGRVTTGAQGAQVKNNQQVDTRSTLYAALQNEVLNAVNQHALFFAAALPRTLSTPLFNRYQNNETYGFHVDGAVRSHPQNGWMRTDLSATLFLSDPQSYDGGELVVNDTFGQHRVKLPAGDLVLYPSSSLHCVTPVTRGVRVASFMWIQSMIRDDKKRAMLFELDNNIQSLKSRYGESEEILSLLNLYHNLLREWSEI | 4.14 ± 0.34 h | 2.79 h | 2.31 ± 0.3 h | 3 ± 0.17 h | 4.856 ± 0.037 h | 6.39 h | 5.85 ± 0.63 h | 11.4 ± 1.4 h | 2.86 h | 3.12 ± 0.055 h | – | 4.16 h
